In the supplement of paper PMC10567573 one finds protein stability index data, which are given here for 94 variants.

First the molecules themselves.
B1: MMP1 (parent)
chain: FHGTRQYKFDPKTKRILTLQKANS
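Note: lentivirally expressed fusions sorted by FACS into six bins by GFP to DsRed ratio, PSI derived from sequencing read proportions per bin multiplied by bin number.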

This series covers variants of B1. Nature of the series: protein stability index of a GFP-peptide fusion (GPS, HEK-293T) (PSI 1-6); higher = more stable. The following applies: c terminus: a fixed tail appended.
On to FHGTRQYKFNPKTKRILTLQKANS [D10N], for which the protein stability index is 1.22.
The same measure for FHGTRQYKFMPKTKRILTLQKANS [D10M]: 2.18; for FHGTRQYKFKPKTKRILTLQKANS [D10K]: 1.83.
The same measure for FHGTRQYKFGPKTKRILTLQKANS [D10G]: 2.15.
The same measure for FHGTRQYKFFPKTKRILTLQKANS [D10F]: 2.45; for FHGTRQYKFIPKTKRILTLQKANS [D10I]: 2.14.
In the case of FHGTRQYKFQPKTKRILTLQKANS [D10Q], the protein stability index was 2.46.
For FHGTRQYKFSPKTKRILTLQKANS [D10S], the protein stability index was 2.36.
Next, FHGTRQYKFCPKTKRILTLQKANS [D10C]: 1.49.
The same measure for FHGTRQYKFAPKTKRILTLQKANS [D10A]: 1.88; for FHGTRQYKFYPKTKRILTLQKANS [D10Y]: 2.01; for FHGTRQYKFLPKTKRILTLQKANS [D10L]: 1.5.
Next, FHGTRQYKFHPKTKRILTLQKANS [D10H]: 1.95; FHGTRQYKFEPKTKRILTLQKANS [D10E]: 1.7.
For FHGTRQYKFVPKTKRILTLQKANS [D10V], the protein stability index came to 1.42.
The same measure for FHGTRQYKFPPKTKRILTLQKANS [D10P]: 1.72.
The same measure for FHGTRQYKFTPKTKRILTLQKANS [D10T]: 2.03.
The same measure for FHGTRQYKFWPKTKRILTLQKANS [D10W]: 1.77; for FHGTRQYKFRPKTKRILTLQKANS [D10R]: 1.62.
Turning to VHGTRQYKFDPKTKRILTLQKANS [F1V], the protein stability index amounted to 3.18.
Next, SHGTRQYKFDPKTKRILTLQKANS [F1S]: 3.43; QHGTRQYKFDPKTKRILTLQKANS [F1Q]: 3.32; IHGTRQYKFDPKTKRILTLQKANS [F1I]: 3.12.
The same measure for RHGTRQYKFDPKTKRILTLQKANS [F1R]: 3.31; for NHGTRQYKFDPKTKRILTLQKANS [F1N]: 3.34; for YHGTRQYKFDPKTKRILTLQKANS [F1Y]: 2.51.
Regarding WHGTRQYKFDPKTKRILTLQKANS [F1W], the protein stability index came out at 2.35.
The same measure for HHGTRQYKFDPKTKRILTLQKANS [F1H]: 3.12; for MHGTRQYKFDPKTKRILTLQKANS [F1M]: 3.13; for GHGTRQYKFDPKTKRILTLQKANS [F1G]: 3.44.
The same measure for THGTRQYKFDPKTKRILTLQKANS [F1T]: 3.4.
Next, EHGTRQYKFDPKTKRILTLQKANS [F1E]: 3.91; LHGTRQYKFDPKTKRILTLQKANS [F1L]: 3.05.
In the case of PHGTRQYKFDPKTKRILTLQKANS [F1P], the protein stability index came out at 3.17.
Take KHGTRQYKFDPKTKRILTLQKANS [F1K]: the protein stability index came out at 3.33.
The same measure for FHGTRQYKFDAKTKRILTLQKANS [P11A]: 2.31.
The same measure for FHMTRQYKFDPKTKRILTLQKANS [G3M]: 1.78; for FHNTRQYKFDPKTKRILTLQKANS [G3N]: 2.77; for FHCTRQYKFDPKTKRILTLQKANS [G3C]: 2.63.
The same measure for FHDTRQYKFDPKTKRILTLQKANS [G3D]: 2.29.
FHETRQYKFDPKTKRILTLQKANS [G3E]: the protein stability index amounted to 2.61.
The same measure for FHQTRQYKFDPKTKRILTLQKANS [G3Q]: 1.67.
The same measure for FHHTRQYKFDPKTKRILTLQKANS [G3H]: 2.23.
With FHWTRQYKFDPKTKRILTLQKANS [G3W], the protein stability index amounted to 2.02.
The same measure for FHTTRQYKFDPKTKRILTLQKANS [G3T]: 2.1.
The same measure for FHVTRQYKFDPKTKRILTLQKANS [G3V]: 2.3; for FHYTRQYKFDPKTKRILTLQKANS [G3Y]: 1.96; for FHLTRQYKFDPKTKRILTLQKANS [G3L]: 1.63.
The same measure for FHSTRQYKFDPKTKRILTLQKANS [G3S]: 1.54; for FHRTRQYKFDPKTKRILTLQKANS [G3R]: 1.6.
FHPTRQYKFDPKTKRILTLQKANS [G3P]: the protein stability index is 2.68.
Next, FHATRQYKFDPKTKRILTLQKANS [G3A]: 2.02.
The same measure for FHITRQYKFDPKTKRILTLQKANS [G3I]: 1.78; for FHKTRQYKFDPKTKRILTLQKANS [G3K]: 1.93.
The same measure for FHFTRQYKFDPKTKRILTLQKANS [G3F]: 1.58; for FHGTRQYMFDPKTKRILTLQKANS [K8M]: 2.63.
In the case of FHGTRQYCFDPKTKRILTLQKANS [K8C], the protein stability index is 2.73.
The same measure for FHGTRQYTFDPKTKRILTLQKANS [K8T]: 2.5; for FHGTRQYEFDPKTKRILTLQKANS [K8E]: 2.21; for FHGTRQYQFDPKTKRILTLQKANS [K8Q]: 1.78.
The same measure for FHGTRQYDFDPKTKRILTLQKANS [K8D]: 2.07.
The same measure for FHGTRQYFFDPKTKRILTLQKANS [K8F]: 2.76; for FHGTRQYAFDPKTKRILTLQKANS [K8A]: 2.04.
FHGTRQYVFDPKTKRILTLQKANS [K8V]: the protein stability index came to 1.74.
Next, FHGTRQYIFDPKTKRILTLQKANS [K8I]: 2.49; FHGTRQYWFDPKTKRILTLQKANS [K8W]: 3.37; FHGTRQYRFDPKTKRILTLQKANS [K8R]: 2.65.
The same measure for FHGTRQYHFDPKTKRILTLQKANS [K8H]: 1.76; for FHGTRQYSFDPKTKRILTLQKANS [K8S]: 2.52; for FHGTRQYNFDPKTKRILTLQKANS [K8N]: 2.71.
Next, FHGTRQYYFDPKTKRILTLQKANS [K8Y]: 2.22; FHGTRQYLFDPKTKRILTLQKANS [K8L]: 1.64; FHGTRQYGFDPKTKRILTLQKANS [K8G]: 2.24.
As to FHGTRQYPFDPKTKRILTLQKANS [K8P], the protein stability index came to 1.71.
Next, FHGTRQIKFDPKTKRILTLQKANS [Y7I]: 1.94; FHGTRQSKFDPKTKRILTLQKANS [Y7S]: 2.74.
Next, FHGTRQWKFDPKTKRILTLQKANS [Y7W]: 3.02.
The same measure for FHGTRQRKFDPKTKRILTLQKANS [Y7R]: 2.4; for FHGTRQTKFDPKTKRILTLQKANS [Y7T]: 1.89; for FHGTRQCKFDPKTKRILTLQKANS [Y7C]: 1.97.
With FHGTRQAKFDPKTKRILTLQKANS [Y7A], the protein stability index is 2.31.
The same measure for FHGTRQKKFDPKTKRILTLQKANS [Y7K]: 2.55; for FHGTRQPKFDPKTKRILTLQKANS [Y7P]: 2.08.
Next, FHGTRQFKFDPKTKRILTLQKANS [Y7F]: 1.75; FHGTRQLKFDPKTKRILTLQKANS [Y7L]: 2.57.
Regarding FHGTRQNKFDPKTKRILTLQKANS [Y7N], the protein stability index was 2.46.
Next, FHGTRQMKFDPKTKRILTLQKANS [Y7M]: 1.72.
Next, FHGTRQEKFDPKTKRILTLQKANS [Y7E]: 2.5.
Next, FHGTRQHKFDPKTKRILTLQKANS [Y7H]: 2.18; FHGTRQGKFDPKTKRILTLQKANS [Y7G]: 1.77.
FHGTRQVKFDPKTKRILTLQKANS [Y7V]: the protein stability index is 2.27.
Next, FHGTRQQKFDPKTKRILTLQKANS [Y7Q]: 2.45.
In the case of FHGTRQDKFDPKTKRILTLQKANS [Y7D], the protein stability index was determined as 2.38.
Next, FHGTRRYKFDPKTKRILTLQKANS [Q6R]: 1.5.
